± gives the uncertainty stated by the source.
Test: amyloid nucleation score (Sup35N fusion, yeast selection) (log enrichment); library NNK3; higher = more nucleation; inactive = no reads after selection
Method in brief: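 Yeast lacking psi expressed peptides of 20 random codons fused to Sup35N, received 100 μM copper sulfate for 24 hours, and were then grown for 7 days at 30°C on medium lacking adenine and uracil. Illumina sequencing of input and output plasmid inserts provided the reads. Nucleation scores are DiMSum log enrichments of output over input, centred on the mode of non-aggregating sequences. Any sequence with under 100 input reads was excluded.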

Substance | amyloid nucleation score
FRCFYGTRSWRKECGESAFL | inactive
DIVGHIKSLMFLVLEDTSSP | inactive
HSWNFGVCG | 0.229 ± 0.2
IMSVRIGSLGVMSHWSLYSY | inactive
PESGAPNPSGYCLAHH | inactive
FLACSDVVYSDN | inactive
LYTNLTTVDLHCVKNA | inactive
GMQPVQQ | inactive
DLHMIATMGECMHCEMHL | inactive
LIRHFNKRVTSCNVVLLYNG | inactive
LNLTGVISNLRVVNGQ | inactive
SPRSFIILVGNGYISCSSVE | 2.56 ± 0.073
GFYVLMISVTLMDSQTPLR | 1.65 ± 0.11
RVCCVGYLSNLLTMKGTGID | 1.81 ± 0.059
PRCVC | inactive
RDWLIMSLGVVLVWFLRYQY | inactive
FMYSGAVSDVRLNSSGDSLG | -0.516 ± 0.96
GWNILLNLNIEYSTLYIVNL | 2.44 ± 0.06
SDITSHLRHSNASNGSWNWL | inactive
FDERSF | inactive
FFQESYLGMDLYELSTYNNV | inactive
VYVRVFGLLPDDTTSSF | inactive
AGHSEA | inactive
VDISFVSAWKDLLLGRLVCD | inactive

Substance | amyloid nucleation score
IQGLCCRHAEFKNY | inactive
VGCHLWEHWRSMQVR | inactive
TRALT | inactive
LFYGSTCIGTDM | -1.07 ± 1.1
PFCLPRGASCRAGCGEHIKG | inactive
YWMMY | inactive
SNLLCEALETRLYPRLKHVR | inactive
CFDAYIAYLSMRCWYPKNNC | 0.015 ± 0.71
KDCASGSRSTAIFAFCSGAF | 0.281 ± 0.27
YANWLVLILYG | 1.32 ± 0.11
LIICLYSTAGRGIRWSDSTA | inactive
WVWIVSMVRRGSEAFEALEM | inactive
SVTLGWSTRCCF | 1.27 ± 0.096
ENWTDGM | inactive
VLAGACDYPYGNVLV | inactive
DDLRYRNE | inactive
SQSWMSNLLMGSRDDL | 1.58 ± 0.13
TNLLM | inactive
VGSGCNISTKTACFYMKLIA | inactive
LYLVKVD | inactive
IVVVAFKSPSV | 0.217 ± 0.32
PTAKRM | inactive
CSPKPNKKAAMYKSAYNPGM | 0.629 ± 0.17
YVDTAHHGSFENLECVEGLC | inactive

Substance | amyloid nucleation score
FFNIYLVRNSYQKTCAGLTR | 2.05 ± 0.091
FIYDEQSSDSVV | inactive
SPVVIRFTLLIKCRWLVVWI | inactive
NSIIGPTHHIVK | inactive
IITVSGPLVVLVLSGKGSNN | 2.42 ± 0.062
NARGVKSDEILN | inactive
FLIDNCYWYPHCAPIVAPWL | inactive
YVFLRVEILEKLQQV | -0.522 ± 0.84
NIPPLTLLAVVGS | inactive
FTMSMYKGFRRCA | inactive
FAQFLG | inactive
SSPRPLCPDLRLVDIIQILI | inactive
FDERRSRGPSKSMKGLLTTY | inactive
SMKLLT | -0.254 ± 0.7
GSPVRWRGPGFTSPRLTRA | 0.766 ± 0.26
YLQFIDENS | inactive
KYCRRVYSSAETLYVLTHI | inactive
SCGLLWCD | -0.43 ± 1.2
TMTRSLYSVVSFKRFNSCLV | inactive
VRWQYVYMPPA | inactive
CLSLKNERHQVFMSRIGNRA | inactive
SDGHFLCV | inactive
SGRKR | inactive
VKYYDFCEPGRGYKDIRRL | inactive

Substance | amyloid nucleation score
WWGNRAVVYIILLHEPGAWR | inactive
ATNLWR | inactive
LSYFYKVPLDTAYMW | 1.07 ± 0.12
GMVMVLQTTRYNCHMMRELQ | inactive
TIFGCRSSQCSMFVLVFDFY | 1.51 ± 0.12
SEWKNTRNTHVLWYTSDSAT | inactive
VFVPVYPEFFVRSG | inactive
LFTYVPDFSGLTLSTICCLV | 0.458 ± 0.35
CGVYPYPWVVMFTDCKMNRW | inactive
YYCEFGLFELKQTYCRLFWG | inactive
VTQLWVLNSVSVYWKDLVAP | -0.319 ± 1.1
SIYDSVFKMFCVWIVTSVLF | inactive
RCGKPVGRTYGLGISIEKAR | inactive
EEVSVA | inactive
IDVYLGLYMRRVSVLETHCS | 2.02 ± 0.087
TSSETNLAYCSAVRGGLRKQ | inactive
NYVLRTSVVL | inactive
RTLLGEEWLCSVEMEVVGGQ | inactive
NNPSHGTRQNTYSALGWDHT | inactive
FSLRLPYFA | inactive
GYSRG | inactive
CLYVSLS | inactive
KREPKS | inactive
LQGQHDAHWQSCSRLSECSQ | inactive

Substance | amyloid nucleation score
VFLQRCVDYMCDRNCFSVFA | inactive
PEAVTCCNQKMTPVFIIGHP | inactive
VSLLNITTVMSSPRIQGKHV | 1.01 ± 0.12
FTAFMFS | inactive
DLGLNYFESSRDPDGSLLYL | inactive
LRIGNVVCLKLSFSFNRYLW | 0.352 ± 0.75
SYILRLSHFITVGLFWAEMQ | inactive
SYDVNTDFVLCDYSRDTGSQ | inactive
KCNPVINFLWEMVLSDVFPL | inactive
AYKYVTVCLVDSSVLTSNRG | inactive
NNYSPLFRTTAGYSSHFTRQ | inactive
QRFYILPRQCNALKGIITSL | inactive
PMGNRAWFPFLYEDQKPRIS | inactive
IYSTWET | -0.698 ± 1.5
PMVKPSNLCYSSHCSMGTRG | inactive
ALGIYRTIYCVIVFG | inactive
SNLMYGNISINLDRWYVAFF | 2.51 ± 0.074
KNQYSNSRLWYGALECHAPG | inactive
MFSLNVYMGDTIVVHQGFTD | 2.77 ± 0.058
DCFMGPLVSNCGFYECRLSV | inactive
DHKFGNMLAFESRLVLYQIK | inactive
FPRVTVPLVFSSIQESTSSE | inactive
RFKCSTNGCRTFRGHHYNVK | inactive
IWFSLLVPDLPRIIGSLYIS | inactive

Substance | amyloid nucleation score
LATLLTMWRGSLRYNPLKRL | -0.354 ± 0.48
ILYRCDCAFFYPLGLLFSRC | inactive
TDIAPLAGGITSSDNIVRTK | inactive
IVYREVCVFVNM | 1.78 ± 0.063
FHEFSTSFWSFEASLLTARL | inactive
LFGTFQWVDWGLFIL | inactive
SFIKRVRDSMSRM | inactive
QMRTWSKIYICTKPFL | 1.07 ± 0.1
LYGTFVNSCQRFNLLDV | inactive
RLSLKSFVRFQRLCP | inactive
TCAPMTITFSCHNNLFKC | 2.65 ± 0.058
VFPKSYTPDQTFPCNSSLAK | inactive
DMIINILRSDYQWWSAN | inactive
DDPQVGLNFAQSYALPEYFA | inactive
SYCDVFTGNNLHLVVSFFYS | 2.7 ± 0.053
KLEREMADNDVARGGQLVLG | inactive
EPYPM | inactive
LLYSLWQSHLMLTGCNM | inactive
GLCNTYCFHHCFRWVR | 0.769 ± 0.24
ELRSL | inactive
YQFDFTF | inactive
VLDKVKWTLLCNGRRAVAPW | -0.089 ± 1.4
VINVT | inactive
HIVLLKCIQAAETVAGFKW | inactive

Substance | amyloid nucleation score
VALDNCTFVLVAMQTDQD | 0.817 ± 0.12
DFVDARFWQIFGFSNAEQGL | inactive
DSSSWSHL | -0.291 ± 1.4
CKVYGKSLVMAYN | inactive
RGIEVMDLTLARAHKRA | inactive
WSNNMWYVRYSDFCISCLLV | inactive
RGVIPLNSKCKL | inactive
RLFLTVHPTDSILENEAV | inactive
YHEGLYCGWSYNNCYLTFIG | 0.821 ± 0.25
STRAVQIRKSRGFAGYPGN | inactive
SGSWHKH | inactive
IFFVTVYQTNHHKSTLRCTN | 2.33 ± 0.087
VLDAIVATDRL | inactive
IFCKPWGSSFRIEPVAGTWI | inactive
QDLMRTEHFNYS | inactive
TKGKLLSKHLGFVRCRVHRS | inactive
LMRLLLNYWSITAIILL | inactive
SWRPAICPLLVMKL | inactive

From the supplement of paper PMC12042874
